The record followed here is patent publication US20040175816.

The target in this series is T1, OkrAI restriction endonuclease (Oceanospirillum kriegii) (UniProt E2JKI3).
T1 sequence: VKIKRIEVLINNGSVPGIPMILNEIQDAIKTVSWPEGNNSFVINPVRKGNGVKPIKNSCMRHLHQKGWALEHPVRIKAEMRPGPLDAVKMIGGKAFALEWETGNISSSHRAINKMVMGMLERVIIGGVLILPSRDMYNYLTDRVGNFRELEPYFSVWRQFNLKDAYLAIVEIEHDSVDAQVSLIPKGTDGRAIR
The series can be described thus: cleavage_in_vitro. Conditions: approximate yield, assayed in cell extract; isoschizomer of BamHI.

With lambda phage DNA, the activity (units per gram wet cells) is 5e+06.
